This note sets out measurements from US20200376136A1 (Regeneron, published 2020).

Usually EC50 stands for the concentration giving half of the maximal effect.

Experiment [1] has as its target T1, human CD3 (human, UniProt P07766 23-207; P04234 22-171). In words: cell-based or functional assay.
Experiment [2] addresses T2, STEAP2/1 chimeric construct.
T2 construct: Expressed on engineered PC3 human prostate cancer cells; also called PC3_STEAP2/1
In words: FACS titration on PC3 cells expressing the STEAP2/1 chimera.
Protocol: (§1) Flow cytometric analysis was utilized to determine binding of STEAP2×CD3 bispecific antibodies to Jurkat, PC3_STEAP2/1 chimeric and cynomolgus T cells, followed by detection with a phycoerythrin (PE)-labeled anti-human IgG antibody. […] After incubation, the cells were washed twice with cold PBS containing 1% filtered FBS and a PE-conjugated anti-human secondary antibody was added to the cells and incubated for an additional 30 minutes. Wells containing no antibody or secondary antibody only were used as a control. After incubation, cells were washed, re-suspended in 200 μL cold PBS containing 1% filtered FBS and analyzed by flow cytometry on a BD FACS Canto II.

Experiment [3] deals with T1, human CD3. In words: cell-based or functional assay. This is another data set of the same source.
Experiment [4] addresses T3, human six-transmembrane epithelial antigen of prostate 2 (STEAP2) (human, UniProt Q8NFT2 1-490).
T3 sequence: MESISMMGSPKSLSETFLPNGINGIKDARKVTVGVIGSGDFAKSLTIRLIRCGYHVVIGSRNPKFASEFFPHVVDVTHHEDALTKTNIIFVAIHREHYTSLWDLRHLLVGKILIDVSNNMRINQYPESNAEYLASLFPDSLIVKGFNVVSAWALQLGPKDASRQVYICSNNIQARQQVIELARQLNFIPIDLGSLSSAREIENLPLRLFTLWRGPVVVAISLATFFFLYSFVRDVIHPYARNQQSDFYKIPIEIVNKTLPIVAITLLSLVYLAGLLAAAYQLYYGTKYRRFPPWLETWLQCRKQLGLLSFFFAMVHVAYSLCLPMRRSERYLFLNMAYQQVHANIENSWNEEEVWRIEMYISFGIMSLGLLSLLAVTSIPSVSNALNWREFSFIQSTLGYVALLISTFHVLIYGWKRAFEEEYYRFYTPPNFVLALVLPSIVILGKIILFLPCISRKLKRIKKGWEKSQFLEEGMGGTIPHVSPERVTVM
In words: cell-based or functional assay.

Experiment [5] has as its target T1, human CD3. In words: FACS titration on Jurkat cells (human CD3).
Protocol: as §1
Experiment [6] has as its target T1, human CD3. In words: FACS titration of Jurkat cells.
Experiment [7] has as its target T1, human CD3. In words: FACS assays. On the technique in general: In flow cytometry, cells or beads pass a laser one at a time.

T1 sequence (P07766 23-207 limits assumed, chain 1 of 2): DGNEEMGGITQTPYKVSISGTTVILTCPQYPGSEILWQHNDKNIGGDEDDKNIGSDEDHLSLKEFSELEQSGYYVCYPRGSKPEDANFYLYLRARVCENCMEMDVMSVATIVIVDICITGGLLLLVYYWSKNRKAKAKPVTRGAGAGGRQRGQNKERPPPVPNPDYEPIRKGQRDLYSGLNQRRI
T1 sequence (P04234 22-171 limits assumed, chain 2 of 2): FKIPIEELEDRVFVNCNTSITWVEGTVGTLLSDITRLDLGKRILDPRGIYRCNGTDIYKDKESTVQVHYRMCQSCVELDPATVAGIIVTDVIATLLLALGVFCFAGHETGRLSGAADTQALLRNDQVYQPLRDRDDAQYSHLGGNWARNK

B1: BSSTEAP2/CD3-001 (bispecific antibody, IgG4, V domains shown)
VH 1: QVQLQQSGPGLVKPSQTLSLTCAISGDSVSSNRAAWNWIRQSPSRGLQWLGRTYYRSKWYNDYAVSLRSRITINPVTSKNQVALHMNSVTPEDTAVYYCARAGIVVVPGPETFYYYDHGLDVWGQGTTVTVSS
VH 2: EVQLVESGGGLVQPGRSLRLSCAASGFTFDDYSMHWVRQAPGKGLEWVSGISWNSGSKGYADSVKGRFTISRDNAKNSLYLQMNSLRAEDTALYYCAKYGSGYGKFYHYGLDVWGQGTTVTVSS
VL: DIQMTQSPSSLSASVGDRVTITCRASQSIRSYLNWYQQKPGKAPELLIHAASSLQSGVPSRFSGSGSGTDFTLTISSLQPEDFASYYCQQSYSAPPITFGQGTRLEIK
B1: the “hPBMC Proliferation [M] (EC50, with anti-CD28)” value in the experiment with human CD3 [1] is 1.6e-10 M. The EC50 was 3440 pM in experiment [2] and 7190 pM with human CD3 [5]. Further, in the experiment with human CD3 [3], the “T cells activation EC50 [M] (CD69+ of CD2+ T cells)” value was found to be 1.61e-12 M. Moreover, the “C4-2 cells depletion EC50” value in experiment [4] stood at 4.68 pM.

B2: CD3-VH-P (antibody, V domains shown)
VH: EVQLVESGGGLVQPGRSLRLSCVASGFTFDDYSMHWVRQAPGKGLEWVSGISWNSGSKDYADSVKGRFTISRDNAKNSLYLQMNSLRAEDTALYYCAKYGSGYGKFYHYGLDVWGQGTTVTVSS
VL: DIQMTQSPSSLSASVGDSVTITCRASQSINNYLNWYQQKPGKAPKLLIYTASSLLSGVPSRFSGSGSGTDFTLTISGLHPEDFATYFCQQSFSTPPITFGQGTRLDIK
notes: Anti-CD3 antibody from a genetically modified mouse
In turn, B2 gave an EC50 in the experiment with human CD3 [6] of 1000 to 40000 pM.

B3: CD3-VH-G (antibody, V domains shown)
VH: EVQLVESGGGLVQPGRSLRLSCAASGFTFDDYSMHWVRQAPGKGLEWVSGISWNSGSKGYADSVKGRFTISRDNAKNSLYLQMNSLRAEDTALYYCAKYGSGYGKFYHYGLDVWGQGTTVTVSS
VL: DIQMTQSPSSLSASVGDSVTITCRASQSINNYLNWYQQKPGKAPKLLIYTASSLLSGVPSRFSGSGSGTDFTLTISGLHPEDFATYFCQQSFSTPPITFGQGTRLDIK
notes: CD3-VH-P engineered to germline frameworks
Take B3: the binding result in the experiment with human CD3 [7] is listed as “binds”.

B4: BSSTEAP2/CD3-004 (bispecific antibody, IgG4, V domains shown)
VH 1: QVQLVESGGGVVQPGRSLRLSCVASGFTISSYGMNWVRQAPGKGLEWVAVISYDGGNKYSVDSVKGRFTISRDNSKNTLYLQMNSLRAEDSAVYYCARGRYFDLWGRGTLVTVSS
VH 2: EVQLVESGGGLVQPGRSLRLSCAASGFTFADYTMHWVRQGPGTGLEWVSDIGWSGGSLGYADSVKGRFTISRDNAKNSLYLEMNNLRPEDTALYYCVKDKSGYGKFQYGLDVWGQGTTVTVSS
VL: DIQMTQSPSTLSASVGDRVTITCRASQSISSWLAWYQQKPGRAPNLLISKASSLKSGVPSRFSGSGSGTEFTLTVSSLQPDDFATYYCQQYYSYSYTFGQGTKLEIK
Take B4: in the experiment with human CD3 [1], the “hPBMC Proliferation [M] (EC50, with anti-CD28)” value is 7.1e-13 M. Further, the EC50 was found to be 79100 pM in experiment [2] and 688 pM in the experiment with human CD3 [5]. For the same molecule, the “T cells activation EC50 [M] (CD69+ of CD2+ T cells)” value with human CD3 [3] was 9.4e-13 M. Moreover, in experiment [4], the “C4-2 cells depletion EC50” value amounted to 3.11 pM.
